Legend:
[1] = biological target: T1, GPRC5D on MM.1S cells (human, UniProt Q9NZD1 1-345); assay: cell-based or functional assay
[2] = biological target: T1, GPRC5D on MM.1S cells; assay: cell-based or functional assay; remark: listed apart in the source
[3] = biological target: T1, GPRC5D on MM.1S cells; assay: FACS on MM.1S cells
Protocol: The binding affinities of the generated humanized Fab-scFv-Fab bispecific antibodies were determined by FACS analysis. […] (a) Jurkat cells were washed by Staining Buffer (PBS+1% BSA) in round bottom 96-well plate. [0833] (b) Antibody dilutions and cells were added to each well, incubated at 4 degrees for 1 hour. [0834] (c) Cells were spined down at 300 g for 3 minutes, and the supernatants were discarded. [0835] (d) Cells were washed with Staining Buffer. […] (e) Step (d) was repeated and the cells were incubated for 0.5 hours at 4 degrees with secondary antibody in Staining Buffer. [0837] (f) After incubation, step (d)-(e) were repeated. […] (g) Staining Buffer was added and fluorescence signals were recorded by flow cytometry.
The binding affinities of the generated humanized Fab-scFv-Fab bispecific antibodies were determined by FACS analysis. The ATG-Bis-40E9 was used as positive control and hIgG1 isotype was used as negative control. The protocol for FACS analysis is identical to that described in Example 3.2, except that MM.1S cells were used in this example.

T1 sequence (Q9NZD1 whole entry): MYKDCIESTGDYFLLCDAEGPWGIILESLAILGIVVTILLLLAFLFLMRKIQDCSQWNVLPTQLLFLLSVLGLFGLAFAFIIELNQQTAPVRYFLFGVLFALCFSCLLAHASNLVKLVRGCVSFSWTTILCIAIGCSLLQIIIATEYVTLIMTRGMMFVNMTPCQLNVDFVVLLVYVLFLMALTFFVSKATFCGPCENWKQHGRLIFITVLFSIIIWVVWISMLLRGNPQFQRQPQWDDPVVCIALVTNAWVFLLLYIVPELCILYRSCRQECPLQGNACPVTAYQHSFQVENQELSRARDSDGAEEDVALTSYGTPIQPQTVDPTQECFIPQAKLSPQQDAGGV

Binder	EC50, Jurkat-NFAT-Luciferase assay in the presence of MM.1S cells [1]	Top RLU, Jurkat-NFAT-Luciferase assay in the presence of MM.1S cells [1]	IC50 of T-cell dependent cytotoxicity on MM.1S cells [2]	EC50 [3]	Top signal [3]	Top (%) target cell killing, MM.1S cells [2]
Bis-108+147-K36R.L (bispecific antibody, Fab-scFv-Fab format) heavy 1: not shown heavy 2: EVQLVQSGAEVKKPGASVKVSCKASGYTFTSYVIHWVRQAPGQGLEWMGYFNPYNDGTKYNEEFKGRVTLTSDKSTSTAYMELRSLRSDDTAVYYCARGGVRRYFDVWGQGTTVTVSSASTKGPSVFPLAPSSKSTSGGTAALGCLVKDYFPEPVTVSWNSGALTSGVHTFPAVLQSSGLYSLSSVVTVPSSSLGTQTYICNVNHKPSNTKVDKKVEPKSCGGGGSGGGGSEVQLVQSGAEVKKPGSSVKVSCKASGYTFTSYWMHWVRQAPGQCLEWMGNINPSSGATNYNEKFKSRVTLTVDKSTSTAYMELSSLRSEDTAVYYCARDRSSQYYFDYWGQGTTVTVSSGGGGSGGGGSGGGGSGGGGSDIVMTQSPDSLAVSLGERATINCKSSQSLLNSRSRRNYLAWYQQKPGQPPKLLIYWASTRESGVPDRFSGSGSGTDFTLTISSLQAEDVAVYYCTQSYTLRTFGCGTKVEIKGGGGSGGGGSDKTHTCPPCPAPEAAGGPSVFLFPPKPKDTLMISRTPEVTCVVVDVSHEDPEVKFNWYVDGVEVHNAKTKPREEQYNSTYRVVSVLTVLHQDWLNGKEYKCKVSNKALPAPIEKTISKAKGQPREPQVCTLPPSREEMTKNQVSLSCAVKGFYPSDIAVEWESNGQPENNYKTTPPVLDSDGSFFLVSKLTVDKSRWQQGNVFSCSVMHEALHNHYTQKSLSLSPGK light: DIQMTQSPSSLSASVGDRVTITCRASQDIGSNLNWLQQKPGKAIKRLIYATFGLDSGVPSRFSGSRSGTDFTLTISSLQPEDFATYYCQQYASFPYTFGGGTKVEIKRTVAAPSVFIFPPSDEQLKSGTASVVCLLNNFYPREAKVQWKVDNALQSGNSQESVTEQDSKDSTYSLSSTLTLSKADYEKHKVYACEVTHQGLSSPVTKSFNRGEC	0.76 nM	326 RLU	1940 nM	1.56 nM	1840 MFI	
Bis-108+147-R33A.L (bispecific antibody, Fab-scFv-Fab format) heavy 1: not shown heavy 2: EVQLVQSGAEVKKPGASVKVSCKASGYTFTSYVIHWVRQAPGQGLEWMGYFNPYNDGTKYNEEFKGRVTLTSDKSTSTAYMELRSLRSDDTAVYYCARGGVRRYFDVWGQGTTVTVSSASTKGPSVFPLAPSSKSTSGGTAALGCLVKDYFPEPVTVSWNSGALTSGVHTFPAVLQSSGLYSLSSVVTVPSSSLGTQTYICNVNHKPSNTKVDKKVEPKSCGGGGSGGGGSEVQLVQSGAEVKKPGSSVKVSCKASGYTFTSYWMHWVRQAPGQCLEWMGNINPSSGATNYNEKFKSRVTLTVDKSTSTAYMELSSLRSEDTAVYYCARDRSSQYYFDYWGQGTTVTVSSGGGGSGGGGSGGGGSGGGGSDIVMTQSPDSLAVSLGERATINCKSSQSLLNSASRKNYLAWYQQKPGQPPKLLIYWASTRESGVPDRFSGSGSGTDFTLTISSLQAEDVAVYYCTQSYTLRTFGCGTKVEIKGGGGSGGGGSDKTHTCPPCPAPEAAGGPSVFLFPPKPKDTLMISRTPEVTCVVVDVSHEDPEVKFNWYVDGVEVHNAKTKPREEQYNSTYRVVSVLTVLHQDWLNGKEYKCKVSNKALPAPIEKTISKAKGQPREPQVCTLPPSREEMTKNQVSLSCAVKGFYPSDIAVEWESNGQPENNYKTTPPVLDSDGSFFLVSKLTVDKSRWQQGNVFSCSVMHEALHNHYTQKSLSLSPGK light: DIQMTQSPSSLSASVGDRVTITCRASQDIGSNLNWLQQKPGKAIKRLIYATFGLDSGVPSRFSGSRSGTDFTLTISSLQPEDFATYYCQQYASFPYTFGGGTKVEIKRTVAAPSVFIFPPSDEQLKSGTASVVCLLNNFYPREAKVQWKVDNALQSGNSQESVTEQDSKDSTYSLSSTLTLSKADYEKHKVYACEVTHQGLSSPVTKSFNRGEC	2.48 nM	287 RLU	1.51 nM	1.87 nM	1650 MFI	45.1%
Bis-108+147-R35K.L (bispecific antibody, Fab-scFv-Fab format) heavy 1: not shown heavy 2: EVQLVQSGAEVKKPGASVKVSCKASGYTFTSYVIHWVRQAPGQGLEWMGYFNPYNDGTKYNEEFKGRVTLTSDKSTSTAYMELRSLRSDDTAVYYCARGGVRRYFDVWGQGTTVTVSSASTKGPSVFPLAPSSKSTSGGTAALGCLVKDYFPEPVTVSWNSGALTSGVHTFPAVLQSSGLYSLSSVVTVPSSSLGTQTYICNVNHKPSNTKVDKKVEPKSCGGGGSGGGGSEVQLVQSGAEVKKPGSSVKVSCKASGYTFTSYWMHWVRQAPGQCLEWMGNINPSSGATNYNEKFKSRVTLTVDKSTSTAYMELSSLRSEDTAVYYCARDRSSQYYFDYWGQGTTVTVSSGGGGSGGGGSGGGGSGGGGSDIVMTQSPDSLAVSLGERATINCKSSQSLLNSRSKKNYLAWYQQKPGQPPKLLIYWASTRESGVPDRFSGSGSGTDFTLTISSLQAEDVAVYYCTQSYTLRTFGCGTKVEIKGGGGSGGGGSDKTHTCPPCPAPEAAGGPSVFLFPPKPKDTLMISRTPEVTCVVVDVSHEDPEVKFNWYVDGVEVHNAKTKPREEQYNSTYRVVSVLTVLHQDWLNGKEYKCKVSNKALPAPIEKTISKAKGQPREPQVCTLPPSREEMTKNQVSLSCAVKGFYPSDIAVEWESNGQPENNYKTTPPVLDSDGSFFLVSKLTVDKSRWQQGNVFSCSVMHEALHNHYTQKSLSLSPGK light: DIQMTQSPSSLSASVGDRVTITCRASQDIGSNLNWLQQKPGKAIKRLIYATFGLDSGVPSRFSGSRSGTDFTLTISSLQPEDFATYYCQQYASFPYTFGGGTKVEIKRTVAAPSVFIFPPSDEQLKSGTASVVCLLNNFYPREAKVQWKVDNALQSGNSQESVTEQDSKDSTYSLSSTLTLSKADYEKHKVYACEVTHQGLSSPVTKSFNRGEC	0.47 nM	408 RLU	0.61 nM	1.58 nM	1740 MFI	99.9%
Bis-108+147-N37K.L (bispecific antibody, Fab-scFv-Fab format) heavy 1: not shown heavy 2: EVQLVQSGAEVKKPGASVKVSCKASGYTFTSYVIHWVRQAPGQGLEWMGYFNPYNDGTKYNEEFKGRVTLTSDKSTSTAYMELRSLRSDDTAVYYCARGGVRRYFDVWGQGTTVTVSSASTKGPSVFPLAPSSKSTSGGTAALGCLVKDYFPEPVTVSWNSGALTSGVHTFPAVLQSSGLYSLSSVVTVPSSSLGTQTYICNVNHKPSNTKVDKKVEPKSCGGGGSGGGGSEVQLVQSGAEVKKPGSSVKVSCKASGYTFTSYWMHWVRQAPGQCLEWMGNINPSSGATNYNEKFKSRVTLTVDKSTSTAYMELSSLRSEDTAVYYCARDRSSQYYFDYWGQGTTVTVSSGGGGSGGGGSGGGGSGGGGSDIVMTQSPDSLAVSLGERATINCKSSQSLLNSRSRKKYLAWYQQKPGQPPKLLIYWASTRESGVPDRFSGSGSGTDFTLTISSLQAEDVAVYYCTQSYTLRTFGCGTKVEIKGGGGSGGGGSDKTHTCPPCPAPEAAGGPSVFLFPPKPKDTLMISRTPEVTCVVVDVSHEDPEVKFNWYVDGVEVHNAKTKPREEQYNSTYRVVSVLTVLHQDWLNGKEYKCKVSNKALPAPIEKTISKAKGQPREPQVCTLPPSREEMTKNQVSLSCAVKGFYPSDIAVEWESNGQPENNYKTTPPVLDSDGSFFLVSKLTVDKSRWQQGNVFSCSVMHEALHNHYTQKSLSLSPGK light: DIQMTQSPSSLSASVGDRVTITCRASQDIGSNLNWLQQKPGKAIKRLIYATFGLDSGVPSRFSGSRSGTDFTLTISSLQPEDFATYYCQQYASFPYTFGGGTKVEIKRTVAAPSVFIFPPSDEQLKSGTASVVCLLNNFYPREAKVQWKVDNALQSGNSQESVTEQDSKDSTYSLSSTLTLSKADYEKHKVYACEVTHQGLSSPVTKSFNRGEC	0.15 nM	424 RLU	1490 nM	2.15 nM	1900 MFI	
Bis-108+147-N31Y.L (bispecific antibody, Fab-scFv-Fab format) heavy 1: not shown heavy 2: EVQLVQSGAEVKKPGASVKVSCKASGYTFTSYVIHWVRQAPGQGLEWMGYFNPYNDGTKYNEEFKGRVTLTSDKSTSTAYMELRSLRSDDTAVYYCARGGVRRYFDVWGQGTTVTVSSASTKGPSVFPLAPSSKSTSGGTAALGCLVKDYFPEPVTVSWNSGALTSGVHTFPAVLQSSGLYSLSSVVTVPSSSLGTQTYICNVNHKPSNTKVDKKVEPKSCGGGGSGGGGSEVQLVQSGAEVKKPGSSVKVSCKASGYTFTSYWMHWVRQAPGQCLEWMGNINPSSGATNYNEKFKSRVTLTVDKSTSTAYMELSSLRSEDTAVYYCARDRSSQYYFDYWGQGTTVTVSSGGGGSGGGGSGGGGSGGGGSDIVMTQSPDSLAVSLGERATINCKSSQSLLYSRSRKNYLAWYQQKPGQPPKLLIYWASTRESGVPDRFSGSGSGTDFTLTISSLQAEDVAVYYCTQSYTLRTFGCGTKVEIKGGGGSGGGGSDKTHTCPPCPAPEAAGGPSVFLFPPKPKDTLMISRTPEVTCVVVDVSHEDPEVKFNWYVDGVEVHNAKTKPREEQYNSTYRVVSVLTVLHQDWLNGKEYKCKVSNKALPAPIEKTISKAKGQPREPQVCTLPPSREEMTKNQVSLSCAVKGFYPSDIAVEWESNGQPENNYKTTPPVLDSDGSFFLVSKLTVDKSRWQQGNVFSCSVMHEALHNHYTQKSLSLSPGK light: DIQMTQSPSSLSASVGDRVTITCRASQDIGSNLNWLQQKPGKAIKRLIYATFGLDSGVPSRFSGSRSGTDFTLTISSLQPEDFATYYCQQYASFPYTFGGGTKVEIKRTVAAPSVFIFPPSDEQLKSGTASVVCLLNNFYPREAKVQWKVDNALQSGNSQESVTEQDSKDSTYSLSSTLTLSKADYEKHKVYACEVTHQGLSSPVTKSFNRGEC	0.27 nM	11.8 RLU		1.93 nM	1930 MFI	122%

Source: patent US20260193348A1 (ANTENGENE BIOLOGICS, published 2026)
